Publication PMC5772613, “Phosphorylation induced cochaperone unfolding promotes kinase recruitment and client class-specific Hsp90 phosphorylation” (Nature Communications, 2018)
Square brackets hold non-standard residues; d marks the D form. Ends that are not written are not given here. pY = N[C@@H](Cc1ccc(OP(=O)(O)O)cc1)C(=O)O

What was measured:
Conditions in all cases: both partners purified
Full-length Hsp90β [1] = molecular target: T1, Full-length Hsp90β (UniProt P08238 1-724); assay: ITC; cochaperone Cdc37 (~300-400 μM, syringe) titrated into Hsp90β variants (~20-30 μM, cell); 25 °C; 20 mM Tris, 100 mM NaCl, 0.5 mM EDTA, 1 mM TCEP; single binding site model
T1 construct: Hsp90β (printed as full-length Hsp90αβ1), in pET28; also called Hsp90αβ1

Full-length Hsp90β [2] = molecular target: T1, Full-length Hsp90β; assay: SEC; analytical, Biorad Enrich SEC 650, 4 °C; 20 mM Tris pH 7.5, 100 mM NaCl, 0.5 mM EDTA, 2 mM DTT; binary mixtures 1:1 and ternary mixtures Hsp90:Cdc37:bRaf 2:1:1, incubated 15 min at 4 °C
SH2 domain of Yes = molecular target: T2, SH2 domain of Yes (UniProt P07947 158-255); assay: ITC; phosphopeptide (600-750 μM, syringe) titrated into SH2 domain (50-60 μM, cell); 25 °C; 20 mM Tris, 100 mM NaCl, 0.5 mM EDTA, 1 mM TCEP; single binding site model
T2 construct: Yes, SH2 domain; Gift of Bruce Mayer (pGEX); 15N-labelled for NMR; also called Yes^SH2; SH2^Yes; source: E. coli BL21(DE3), purified (GST column, PreScission cleavage, second GST column, Superdex 75); not shown: GST, N-terminal, cleaved
T2 sequence (P07947 158-255): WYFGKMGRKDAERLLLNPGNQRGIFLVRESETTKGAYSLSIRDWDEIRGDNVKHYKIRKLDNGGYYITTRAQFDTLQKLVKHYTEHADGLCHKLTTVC

T1 sequence (P08238 whole entry): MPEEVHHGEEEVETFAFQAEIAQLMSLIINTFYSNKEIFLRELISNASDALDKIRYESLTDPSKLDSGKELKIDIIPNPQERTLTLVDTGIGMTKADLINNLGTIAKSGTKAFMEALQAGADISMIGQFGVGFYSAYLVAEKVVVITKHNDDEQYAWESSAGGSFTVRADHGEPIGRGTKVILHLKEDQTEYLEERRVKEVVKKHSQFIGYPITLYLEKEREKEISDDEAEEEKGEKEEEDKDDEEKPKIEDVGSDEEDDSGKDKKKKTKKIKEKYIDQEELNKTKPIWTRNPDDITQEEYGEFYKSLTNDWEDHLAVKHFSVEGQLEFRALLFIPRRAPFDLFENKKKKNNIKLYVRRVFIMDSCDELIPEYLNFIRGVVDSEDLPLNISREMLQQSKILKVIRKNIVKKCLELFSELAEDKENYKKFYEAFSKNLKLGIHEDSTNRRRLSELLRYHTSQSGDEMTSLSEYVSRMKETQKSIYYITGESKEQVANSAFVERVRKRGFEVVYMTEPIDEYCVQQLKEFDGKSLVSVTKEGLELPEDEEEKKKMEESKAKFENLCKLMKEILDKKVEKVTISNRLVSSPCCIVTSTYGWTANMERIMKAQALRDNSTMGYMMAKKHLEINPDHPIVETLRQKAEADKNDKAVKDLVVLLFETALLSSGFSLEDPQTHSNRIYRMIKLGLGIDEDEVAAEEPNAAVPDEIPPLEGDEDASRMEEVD

Row | Binder | binding result (Full-length Hsp90β [2]) | further results
1 | Full-length human Cdc37 (natural protein, UniProt Q16543 1-378, looked up, Cdc37 (p50), human, full length; isotope-labelled in some NMR samples; also called p50; wild-type Cdc37) MVDYSVWDHIEVSDDEDETHPNIDTASLFRWRHQARVERMEQFQKEKEELDRGCRECKRKVAECQRKLKELEVAEGGKAELERLQAEAQQLRKEERSWEQKLEEMRKKEKSMPWNVDTLSKDGFSKSMVNTKPEKTEEDSEEVREQKHKTFVEKYEKQIKHFGMLRRWDDSQKYLSDNVHLVCEETANYLVIWCIDLEVEEKCALMEQVAHQTIVMQFILELAKSLKVDPRACFRQFFTKIKTADRQYMEGFNDELEAFKERVRGRAKLRIEKAMKEYEEEERKKRLGPGGLDPVEVYESLPEELQKCFDVKDVQMLQDAISKMDPTDAKYHMQRCIDSGLWVPNSKASEAKEGEEAGPGDPLLEAVPKTGDEKDVSV | – | binding result (Full-length Hsp90β [1]): binds
2 | Cdc37 double-phosphomimetic mutant Y4E/Y298E (natural protein, human, UniProt Q16543 1-378, looked up, Cdc37 (p50), human, double point mutant of the full-length construct; also called Cdc37^EE; C^EE) MVDESVWDHIEVSDDEDETHPNIDTASLFRWRHQARVERMEQFQKEKEELDRGCRECKRKVAECQRKLKELEVAEGGKAELERLQAEAQQLRKEERSWEQKLEEMRKKEKSMPWNVDTLSKDGFSKSMVNTKPEKTEEDSEEVREQKHKTFVEKYEKQIKHFGMLRRWDDSQKYLSDNVHLVCEETANYLVIWCIDLEVEEKCALMEQVAHQTIVMQFILELAKSLKVDPRACFRQFFTKIKTADRQYMEGFNDELEAFKERVRGRAKLRIEKAMKEYEEEERKKRLGPGGLDPVEVEESLPEELQKCFDVKDVQMLQDAISKMDPTDAKYHMQRCIDSGLWVPNSKASEAKEGEEAGPGDPLLEAVPKTGDEKDVSV | binds | –
3 | Cdc37 single phosphomimetic mutant Y4E (natural protein, human, UniProt Q16543 1-378, looked up, Cdc37 (p50), human, point mutant of the full-length construct; also called Cdc37^Y4E) MVDESVWDHIEVSDDEDETHPNIDTASLFRWRHQARVERMEQFQKEKEELDRGCRECKRKVAECQRKLKELEVAEGGKAELERLQAEAQQLRKEERSWEQKLEEMRKKEKSMPWNVDTLSKDGFSKSMVNTKPEKTEEDSEEVREQKHKTFVEKYEKQIKHFGMLRRWDDSQKYLSDNVHLVCEETANYLVIWCIDLEVEEKCALMEQVAHQTIVMQFILELAKSLKVDPRACFRQFFTKIKTADRQYMEGFNDELEAFKERVRGRAKLRIEKAMKEYEEEERKKRLGPGGLDPVEVYESLPEELQKCFDVKDVQMLQDAISKMDPTDAKYHMQRCIDSGLWVPNSKASEAKEGEEAGPGDPLLEAVPKTGDEKDVSV | binds | –
4 | Full-length Cdc37 carrying the phosphomimetic mutation Y298E (natural protein, human, UniProt Q16543 1-378, looked up, Cdc37 (p50), human, full length, point mutant; Point mutants made by QuikChange; Methyl-labelled for the NMR sample with Hsp90α; also called Cdc37^Y298E) MVDYSVWDHIEVSDDEDETHPNIDTASLFRWRHQARVERMEQFQKEKEELDRGCRECKRKVAECQRKLKELEVAEGGKAELERLQAEAQQLRKEERSWEQKLEEMRKKEKSMPWNVDTLSKDGFSKSMVNTKPEKTEEDSEEVREQKHKTFVEKYEKQIKHFGMLRRWDDSQKYLSDNVHLVCEETANYLVIWCIDLEVEEKCALMEQVAHQTIVMQFILELAKSLKVDPRACFRQFFTKIKTADRQYMEGFNDELEAFKERVRGRAKLRIEKAMKEYEEEERKKRLGPGGLDPVEVEESLPEELQKCFDVKDVQMLQDAISKMDPTDAKYHMQRCIDSGLWVPNSKASEAKEGEEAGPGDPLLEAVPKTGDEKDVSV | binds | –
5 | EV[pY]ESLPEEL (Cdc37, residues 296-305; also called phosphopeptide; source: synthetic peptide (GL Biochem)) [Phosphotyrosine-modified decapeptide EVpYESLPEEL of Cdc37 (residues 296-305)] | – | Kd (SH2 domain of Yes): 410 nM
